The values that follow come from PMC10380293 (International Journal of Molecular Sciences, 2023).

By IC50 is commonly meant the midpoint of a concentration-inhibition curve. In general, Ki refers to the equilibrium dissociation constant of an inhibitor or competing ligand from its target.

Where “and” joins values, the source holds several entries; their conditions need not be identical. Identical values can stand only once.

Test [1] concerns the target mScarlet-I-PCNA (human, UniProt P12004 1-261). Description: FRET or BRET; competition: 1 µM p15-mNeonGreen and 1 µM mScarlet-I-PCNA with varying inhibitor (0-100 µM p15^51-70, 0-20 µM unlabeled PCNA), 1 h at 37 °C, PBS with 1 mM DTT; sensitized emission; Ki by the Cheng-Prusoff equation. The settings on record: both partners purified. (In general: Bioluminescence resonance energy transfer reports proximity on the nanometre scale.)

The target in test [2] is mScarlet-I-PCNA^C148S (human, UniProt P12004 1-261, C148S). Description: FRET or BRET; 1 µM p15-mNeonGreen (donor) with 0-3.09 µM mScarlet-I-PCNA (acceptor, protomer concentration) in PBS with 1 mM DTT, 37 °C for 1 h, 384 well plate; sensitized emission by the three-channel method, control mNeonGreen/mScarlet-I-PCNA subtracted; apparent for C148S. The settings on record: both partners purified.
Sequence of mScarlet-I-PCNA^C148S (P12004 whole entry C148S): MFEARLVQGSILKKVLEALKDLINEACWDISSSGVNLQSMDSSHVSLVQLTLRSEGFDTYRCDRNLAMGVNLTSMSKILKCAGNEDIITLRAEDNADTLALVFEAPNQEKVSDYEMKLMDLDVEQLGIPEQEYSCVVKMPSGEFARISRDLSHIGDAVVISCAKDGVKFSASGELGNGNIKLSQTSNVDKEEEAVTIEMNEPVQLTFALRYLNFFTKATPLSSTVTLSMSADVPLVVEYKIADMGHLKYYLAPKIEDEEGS

Sequence of mScarlet-I-PCNA (P12004 whole entry): as the sequence (P12004 whole entry C148S) above, with S148C counted along it

Consider NPVCVRPTPKWQKGIGEFFR [peptide p15^51–70], for which, in test [1], the IC50 came to 9.81 µM; the Ki was 2.94 µM and 2.99 µM.

B1: p15-mNeonGreen (natural protein, UniProt Q15004 1-111, looked up)
chain: MVRTKADSVPGTYRKVVAARAPRKVLGSSTSATNSTSVSSRKAENKYAGGNPVCVRPTPKWQKGIGEFFRLSPKDSEKENQIPEEAGSSGLGKAKRKACPLQPDHTNDEKE
On to B1, for which the Kd in test [2] amounted to 3.09 µM.
